Experiments:
[1] = reported values; cited from earlier work
[2] = BNA(H)-mediated PTDH biotransformation with TsOYE; type: biochemical; settings: 0, 5, 10, or 20 mM BNA^+
Description: BNA(H)-Mediated PTDH Biotransformation. Reactions with BNA^+, see FIG. 10D, contained 100 mM MOPS-NaOH at pH 7.6, 10 mM KIP, 100 mM sodium phosphite, and 2% v/v DMSO. BNA^+Cl^−, prepared by refluxing equimolar amounts of nicotinamide and benzyl chloride in acetonitrile overnight, followed by precipitation with diethyl ether on ice was supplied to the reactions at final concentrations of 0, 5, 10, or 20 mM. Reactions were initiated by spiking TsOYE and the appropriate TS-PTDH variant to a final concentration of 10 μM, each. Reaction mixtures were incubated at 30° C. on a Thermomixer C (Eppendorf) with shaking at 900 rpm for 24 h, extracted with 500 μL ethyl acetate containing 5 mM n-dodecane, and analyzed by GC-FID. The cycling system with no BNA was used to determine the background activity of the cycling systems. This value was subtracted from the final levodione concentrations in the 5-, 10-, and 20-mM samples to determine the BNA(H)^− specific levodione production. Concentrations of levodione product were determined using a calibration line (0-10 mM, 6 levels, using n-dodecane as internal standard). The y-intercept of the calibration line was forced through 0.
For BNA(H)-mediated reactions, gas chromatography analyses were performed on a GC-2010 (Shimadzu, Japan) equipped with an AOC-20i auto injector and a flame ionization detector (FID), using a CP-Sil 5 column (25 m×0.25 mm×[…]). 1 μL of sample was injected with a split ratio of 100:1 and injector at 340° C. The FID was maintained at 360° C. Nitrogen was used as the carrier gas, with a linear velocity of 30 cm/s. The oven was held at 135° C. for 1 min, ramped at 15° C./min to 215° C., then 30° C./min to 345° C., and held at 345° C. for 1 min.
Expression and Purification of Proteins for BNA(H)-Mediated Biotransformation Reactions. E. coli BL21(DE3) strains were transformed with the plasmids containing the TS-PTDH variants and grown on LB-agar plates containing ampicillin at 37° C. overnight. An overnight culture, 15 mL LB supplemented with ampicillin, was inoculated with a single colony, and grown at 37° C., 170 rpm overnight. 2 L baffled shake-flasks with 250 mL of 2×YT media containing 200 μg/mL ampicillin, were inoculated with the overnight culture, grown at 37° C., 170 rpm until OD600 of ˜1.0, induced with IPTG (0.5 mM), and grown at 30° C. and 170 rpm for 24 h. Cells were harvested by centrifugation at 18,000×g, 4° C., 10 min and stored at −20° C. until purification.
The pellet was resuspended in four volumes loading buffer (50 mM sodium phosphate, 300 mM sodium chloride, 10 mM imidazole, pH 7.7), and lysed on ice by sonication (Branson sonifier 250; 15 min total, 40% duty cycle, output control 3.5, 2 mm tip). The lysate was clarified (21,000×g, 4° C., 30 min followed by 0.2 μm filtration), and loaded (1 mL/min) onto a Nickel-HisTrap FF crude (1 mL) column, washed with loading buffer (12 column volumes, CV), followed by a step with 10% elution buffer (loading buffer containing 250 mM imidazole; 12 CV). The protein was then eluted with 100% elution buffer and collected in fractions of 0.5 mL. Fractions containing protein were combined and dialyzed against ice-cold dialysis buffer (50 mM sodium phosphate, pH 7.7, 800 mL); the buffer was renewed after the first 2 h of dialysis. Following the dialysis, the protein was mixed with glycerol (20% v/v final concentration). Enzyme concentrations were estimated by the absorbance at 280 nm (non-denatured protein), using predicted extinction coefficients (wild type and LY-13: 26470, LY-7: […]; web.expasy.org/protparam/). The protein was aliquoted, flash frozen in liquid nitrogen, and stored at −80° C. until use. […]

[3] = Steady-state kinetics of TS-PTDH variants with NADP^+; type: biochemical; settings: 100 mM MOPS, pH 7.25, 10 mM sodium phosphite, varied cofactor concentrations; n = 3
Description: (§1) Purification and Characterization of TS-PTDH Variants. The E. coli BL21(DE3) strains harboring pQElac plasmids encoding the TS-PTDH or TS-PTDH variants were grown in 2×YT media with kanamycin and ampicillin at 37° C. The IPTG-inducible expression, Ni-affinity purification, and protein concentration determination was conducted as described above.
(§2) The steady-state kinetic parameters toward the coenzymes were measured by spiking purified protein into a 100 μL reaction mixture containing 100 mM MOPS, pH 7.25, 10 mM sodium Pt, and varied cofactor concentrations from 0.02 mM to 5 mM at 25° C. The kinetic parameters were measured by monitoring the […] of reduced coenzyme at 340 nm. Data were fitted to the Michaelis-Menten equation to generate estimates of KM and kcat values.

[4] = Specific activity of TS-PTDH variants with NMN^+; type: biochemical; settings: 100 mM MOPS pH 7.25, 10 mM sodium Pt, 4 mM cofactor, 25° C.
Description: as §1
The specific activities of TS-PTDH and variants were measured with the following methods. Briefly, the reaction mixture contained 100 mM MOPS buffer, pH 7.25, 10 mM sodium Pt, and 4 mM cofactor (NAD^+, NADP^+, or NMN^+). The formation of reduced coenzyme was measured by light absorption at 340 nm in a 96-well plate at 25° C. Absorption was correlated to a molar basis using the extinction coefficient (ε) of 6.22 mM^−1 cm^−1 for each cofactor.

E. coli SHuffle strain = assay: Recapitulation of growth restoration with TS-PTDH variants in SHuffle strain; type: cell-based, Escherichia coli; settings: spotted onto agar selection plates
Description: Selection of TS-PTDH Library. A total of 50 μL pre-made SHuffle/pLZ311 or SHuffle/pLZ312 electro-competent cells were transformed with 2 μL TS-PTDH A155N-E175-A176-L208 NNK library DNA (pLZ316) via electroporation as described above. After rescue in SOC media for 1 h, cultures were combined in 10 mL 2×YT with 10 g/L glucose, 0.5% arabinose, kanamycin and ampicillin. 0.2, or 1 μL of culture was immediately taken from the culture and plated on an 2×YT agar plates with kanamycin and ampicillin. The plate was incubated at 37° C. overnight, and the number of colonies formed was counted to estimate the library size. The liquid cultures were incubated at 37° C. with shaking for 10 h. Cells (1 mL) were washed 3 times and re-suspended in M9 Buffer. Targeted serial dilutions of cells were prepared in M9 buffer and 5 μL aliquots were dispensed in series on an agar plate of M9 selection media containing 0.5 mM diamide, 5 or 1 g/L yeast extract, 10 g/L glucose, 0.5% arabinose, 0.5 mM IPTG, 10 g/L sodium phosphite, kanamycin, ampicillin, and 5 mM NMN^+. Selection plates were incubated at 37° C., and photographs were taken to document growth progress. The independent transformants sampled was calculated as 2.4×10^6 and 2.5×10^6 colonies when plated on 5 and 1 g/L yeast extract, respectively. TS-PTDH and the template of the library, TS-PTDH A155N, were cultured in the same conditions as controls. The colonies were numbered by the order of appearance. The selected cells were re-streaked on fresh agar plate with identical media and incubated until single colonies formed on the plate. Variants that cannot forma single colony may be false positives. After extracting the plasmids from each re-streaked colony, the chosen TS-PTDH variants were amplified and moved into the pQElac vector containing a N-terminal 6×His tag for protein purification and characterization. […] 2 μL of a serial dilution of cells were deposited onto a growth selection plate and grown at 37° C.

[5] = Steady-state kinetics of TS-PTDH variants with NMN^+; type: biochemical; settings: enzyme could not be saturated; 100 mM MOPS, pH 7.25, 10 mM sodium phosphite
Description: as §1, §2

[6] = Steady-state kinetics of TS-PTDH variants with NAD^+; type: biochemical; settings: 100 mM MOPS, pH 7.25, 10 mM sodium phosphite, varied cofactor concentrations; n = 3
Description: as §1, §2

B1: wild-type PTDH: wild-type phosphite dehydrogenase enzyme, literature TTN with NAD^+ (protein, UniProt O69054 1-336, looked up)
Phosphonate dehydrogenase: MLPKLVITHRVHDEILQLLAPHCELMTNQTDSTLTREEILRRCRDAQAMMAFMPDRVDADFLQACPELRVVGCALKGFDNFDVDACTARGVWLTFVPDLLTVPTAELAIGLAVGLGRHLRAADAFVRSGEFQGWQPQFYGTGLDNATVGILGMGAIGLAMADRLQGWGATLQYHEAKALDTQTEQRLGLRQVACSELFASSDFILLALPLNADTQHLVNAELLALVRPGALLVNPCRGSVVDEAAVLAALERGQLGGYAADVFEMEDWARADRPRLIDPALLAHPNTLFTPHIGSAVRAVRLEIERCAAQNIIQVLAGARPINAANRLPKAEPAAC
- TTN with NAD^+ [1]: 80,000

B2: TS-PTDH: 16× thermostable variant of Pseudomonas stutzeri phosphite dehydrogenase (SEQ ID NO:2), engineering template (protein, listed as Pseudomonas stutzeri)
chain: MLPKLVITHRVHEEILQLLAPHCELITNQTDSTLTREEILRRCRDAQAMMAFMPDRVDADFLQACPELRVIGCALKGFDNFDVDACTARGVWLTFVPDLLTVPTAELAIGLAVGLGRHLRAADAFVRSGKFRGWQPRFYGTGLDNATVGFLGMGAIGLAMADRLQGWGATLQYHEAKALDTQTEQRLGLRQVACSELFASSDFILLALPLNADTLHLVNAELLALVRPGALLVNPCRGSVVDEAAVLAALERGQLGGYAADVFEMEDWARADRPQQIDPALLAHPNTLFTPHIGSAVRAVRLEIERCAAQNILQALAGERPINAVNRLPKANPAAD
- response of biotransformation efficiency to BNA^+ concentration [2]: cofactor dose-dependent response
- Km [3]: 740 ± 40 µM
- NADP^+ kcat [3]: 0.57 ± 0.01 s⁻¹
- NMN^+-dependent specific activity [4]: 53.0 ± 3.4 nmol/min/mg
- growth restoration, co-expression with NMNH-specific Gor Ortho (E. coli SHuffle strain): grew poorly
- growth, co-expression with wild type Ec Gor (E. coli SHuffle strain): supported cell growth
- Km [5]: > 5000 µM
- Km [6]: 60 ± 10 µM
- NAD^+ kcat [6]: 1.03 ± 0.01 s⁻¹

Reference: patent US20230322857A1, “RECOMBINANTLY ENGINEERED POLYPEPTIDES CAPABLE OF RECYCLING NONCANONICAL COFACTORS” (The Regents of the University of California, priority 2022, published 2023)
